Assay results from US20240294585A1 (MANTRA BIO, published 2024).
Blank lines part the entries; values can stand above or below the binder they belong to.

What was measured:
[1] = molecular target: T1, Isopeptide(3)_Isopeptide(1)_Isopeptide(2) domains-IGSF8 VLM fusion protein (Homo sapiens (IGSF8 portion)); experiment: Capillary electrophoresis-Western blot (Jess), anti-myc, peptide incubated with modified EVs
T1 construct: Flag-tagged fusion of three isopeptide domains and IGSF8; also called Tricatcher-1-IGSF8; Tricatcher-1-IGSF8 fusion protein
Experimental: (§1) for a total volume of 50 μL. […] Samples are mixed by repeated pipetting. The microtiter plate is covered, spun at 50×g for 1 min and incubated at RT with shaking on an orbital shaker for 3 hrs. Reaction is terminated by adding 12.5 μL of 5× termination buffer (5% SDS, 300 mM Tris-HCl (pH 6.8)), mixing and transferring to 1.5-mL microfuge tube, and heating the tube to 95° C., 5 min. Samples are analyzed on a combined automated capillary electrophoresis and Western blot system (Jess™ Simple Western system) according to the manufacturer ProteinSimple® (San Jose, CA), using anti-myc or anti-FLAG antibody as a primary antibody followed by a goat anti-mouse secondary antibody-conjugated to horseradish peroxidase for chemiluminescent detection.

[2] = molecular target: T2, Isopeptide(2) domain-IGSF8 VLM fusion protein (Homo sapiens (IGSF8 portion)); experiment: as above
T2 construct: also called Iso-2; isopeptide(2)-IGSF8
T2 chain: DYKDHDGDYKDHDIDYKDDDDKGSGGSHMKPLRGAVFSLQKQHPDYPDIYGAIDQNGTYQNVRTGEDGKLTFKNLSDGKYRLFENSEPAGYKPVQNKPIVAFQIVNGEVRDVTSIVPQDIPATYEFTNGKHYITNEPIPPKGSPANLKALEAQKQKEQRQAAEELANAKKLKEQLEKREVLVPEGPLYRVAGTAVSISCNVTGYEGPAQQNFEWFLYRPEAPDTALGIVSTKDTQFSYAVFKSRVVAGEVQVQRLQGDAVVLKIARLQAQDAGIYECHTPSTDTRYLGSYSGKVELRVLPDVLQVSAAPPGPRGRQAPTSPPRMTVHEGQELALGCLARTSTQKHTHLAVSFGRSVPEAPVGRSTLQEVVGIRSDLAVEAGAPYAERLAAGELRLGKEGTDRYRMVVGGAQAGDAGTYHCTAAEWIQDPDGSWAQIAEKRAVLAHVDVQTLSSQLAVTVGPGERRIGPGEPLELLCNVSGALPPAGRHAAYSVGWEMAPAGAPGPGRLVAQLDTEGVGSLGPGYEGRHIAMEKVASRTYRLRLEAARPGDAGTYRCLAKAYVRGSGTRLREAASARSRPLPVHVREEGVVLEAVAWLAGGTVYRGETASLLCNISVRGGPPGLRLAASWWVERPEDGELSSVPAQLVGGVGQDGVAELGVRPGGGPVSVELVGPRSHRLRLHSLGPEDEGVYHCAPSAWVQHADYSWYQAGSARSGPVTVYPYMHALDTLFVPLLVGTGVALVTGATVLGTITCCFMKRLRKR
Experimental: as §1

[3] = molecular target: T3, Isopeptide(1)_Isopeptide(2) domains-IGSF VLM fusion protein (Homo sapiens (IGSF8 portion)); experiment: as above
T3 construct: also called Di; DiCatcher-IGSF8
Experimental: as §1

[4] = molecular target: T1, Isopeptide(3)_Isopeptide(1)_Isopeptide(2 …); experiment: Cy3 fluorescence on SDS-PAGE, conjugate incubated with modified EVs
Experimental: 3 μL 500 mM DTT. Samples are mixed, vortexed briefly, spun and heated to 95° C. for 5 min before loading 15 μL per well of NuPAGE® Bis-Tris precast gel. Gel is run at 125V for 1 hr using 1×2-(N-morpholino)ethanesulfonic acid (MES) buffer, following gel manufacturer recommendation, with the loading dye front permitted to run off the gel in order to better separate high molecular weight bands. Seeblue Plus 2 Pre-stained Standard is used as molecular weight standard to follow the course of the electrophoresis and well as a reference for the determining the apparent molecular weight of the targeting moiety-VLM conjugate, in particular, the 5′-IsoPepTag1-ASO-Tricatcher-1-IGSF8 and 3′-IsoPepTag1-ASO-Tricatcher-1-IGSF8 conjugates.

[5] = molecular target: T1, Isopeptide(3)_Isopeptide(1)_Isopeptide(2 …); experiment: Capillary electrophoresis-Western blot, anti-V5, peptide incubated 3 h at RT with modified EVs (FIG. 13)
Experimental: (§2) EVs were harvested and purified from producer cells transfected with each of the indicated recombinant isopeptide domain-containing proteins as described above in Example 11. EVs denoted as “Un” were harvested and purified in parallel from untransfected cells. Two additional GPC3 affinity peptide-Isopeptide Tag fusion peptides, namely to either Isopeptide-1 tag or Isopeptide-3 tag, are tested for the ability form a covalent bond (i.e., isopeptide bond) with the IGSF8 fusion proteins comprising IGSF8 as a VLM and an Isopeptide-2 domain (SEQ ID NO: 200 from expression vector in FIG. 2), Isopeptide-1 and Isopeptide-2 domains (SEQ ID NO: 202 from expression vector in FIG. 3) or Isopeptide-1, Isopeptide-2 and Isopeptide-3 domains (SEQ ID NO: 204 from expression vector in FIG. 4; also called Tricatcher-1-IGSF8 fusion protein), indicated as “Iso-2,” “Di” and “Tri,” respectively, for the Isopeptide domain-VLM status (see FIG. 13). GPC3 affinity peptide (PEPN)-Isopeptide-1 Tag fusion peptide and GPC3 affinity peptide-Isopeptide-3 Tag fusion peptide additionally have an S-peptide epitope tag (S-tag) and V5 epitope tag, respectively; while the IGSF fusion proteins all have a Flag epitope tag. […]

[6] = molecular target: T2, Isopeptide(2) domain-IGSF8 VLM fusion …; experiment: Capillary electrophoresis-Western blot (Jess), anti-myc, 50 µM peptide, 3 h at RT with modified EVs
Experimental: as §1

[7] = molecular target: T1, Isopeptide(3)_Isopeptide(1)_Isopeptide(2 …); experiment: Capillary electrophoresis-Western blot, anti-S-tag, peptide incubated 3 h at RT with modified EVs (FIG. 13)
Experimental: as §2

[8] = molecular target: T3, Isopeptide(1)_Isopeptide(2) …; experiment: as above
Experimental: as §2

binding result [1]: binds
binding result [2]: binds
binding result [3]: binds
B1: C-IsoPep2Tag-PEPN (peptide)
peptide: THVSPNQGGLPSSGGGGSGGGGEQKLISEEDLKLGDIEFIKVNK
notes: also called Isopeptide-2 tag-PEPN fusion peptide (tag at C-terminus); N-terminal PEPN + Isopeptide(2) tag

binding result [4]: binds
B2: 3′-IsoPepTag1-ASO (peptide)
peptide: CAHIVMVDAYKPTK
modifications: N-terminal Cys joined by click chemistry to the 3′ end of the antisense oligonucleotide TGC GCT CCT GGA CGT AGC C, which carries Cy3 at its 5′ end
notes: Peptide-oligonucleotide conjugate; also called 3′-IsoPep1Tag-ASO; C-IsoPep1Tag-ASO

binding result [5]: binds
B3: V5-epitope tagged Isopeptide(3) tag fusion peptide, SEQ ID NO: 246 (peptide)
peptide: DPIVMIDNDKPITSGGGGSGGGGGKPIPNPLLGLDSTTHVSPNQGGLPS
notes: also called C-terminal PEPN + Isopeptide(3) tag

binding result [1]: binds
binding result [3]: binds
binding result [6]: binds
B4: N-IsoPep2Tag-PEPN (peptide)
peptide: KLGDIEFIKVNKSGGGGSGGGGEQKLISEEDLTHVSPNQGGLPS
notes: also called Isopeptide-2 tag-PEPN fusion peptide (tag at N-terminus); C-terminal PEPN + Isopeptide(2) tag

binding result [7]: binds
binding result [8]: binds
B5: S-tag labeled Isopeptide(1) tag fusion peptide, SEQ ID NO: 238 (peptide)
peptide: AHIVMVDAYKPTKSGGGGSGGGGKETAAAKFERQHMDSTHVSPNQGGLPS
notes: Order is isopeptide-1 tag, linker, S-tag, PEPN; also called C-terminal PEPN + Isopeptide(1) tag

binding result [5]: binds
B6: V5-epitope tagged Isopeptide(3) tag fusion peptide, SEQ ID NO: 244 (peptide)
peptide: THVSPNQGGLPSSGGGGSGGGGGKPIPNPLLGLDSTDPIVMIDNDKPIT
notes: also called N-terminal PEPN + Isopeptide(3) tag

binding result [4]: binds
B7: 5′-IsoPepTag1-ASO (peptide)
peptide: AHIVMVDAYKPTKC
modifications: C-terminal Cys joined by click chemistry to the 5′ end of the antisense oligonucleotide TGC GCT CCT GGA CGT AGC C, which carries Cy3 at its 3′ end
notes: Peptide-oligonucleotide conjugate; also called 5′-IsoPep1Tag-ASO; Cy3-labeled IsoPep1Tag-ASO conjugate
